Blank lines part the entries; values can stand above or below the substance they belong to.
Key:
[1] = target: microtubules (paclitaxel-stabilized, polymerized from tubulin); experiment: optical tweezers unbinding-force assay (constant-pulling); as a1 but with 1 mM ATP; non-reducing conditions
Target sequence in this assay (chain, as listed by the source, chain 1 of 2): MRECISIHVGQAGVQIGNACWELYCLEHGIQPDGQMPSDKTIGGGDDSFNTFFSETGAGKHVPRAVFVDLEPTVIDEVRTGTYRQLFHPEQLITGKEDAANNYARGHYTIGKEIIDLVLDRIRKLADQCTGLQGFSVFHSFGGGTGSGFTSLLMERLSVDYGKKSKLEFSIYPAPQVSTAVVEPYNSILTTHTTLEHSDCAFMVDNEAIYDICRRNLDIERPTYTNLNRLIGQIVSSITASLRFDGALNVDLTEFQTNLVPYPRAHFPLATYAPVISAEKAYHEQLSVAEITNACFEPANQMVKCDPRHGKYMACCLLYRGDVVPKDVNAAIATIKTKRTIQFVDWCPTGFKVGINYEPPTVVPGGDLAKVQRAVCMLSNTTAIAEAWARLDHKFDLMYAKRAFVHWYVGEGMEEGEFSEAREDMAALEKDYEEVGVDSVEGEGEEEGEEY
Target sequence in this assay (chain, as listed by the source, chain 2 of 2): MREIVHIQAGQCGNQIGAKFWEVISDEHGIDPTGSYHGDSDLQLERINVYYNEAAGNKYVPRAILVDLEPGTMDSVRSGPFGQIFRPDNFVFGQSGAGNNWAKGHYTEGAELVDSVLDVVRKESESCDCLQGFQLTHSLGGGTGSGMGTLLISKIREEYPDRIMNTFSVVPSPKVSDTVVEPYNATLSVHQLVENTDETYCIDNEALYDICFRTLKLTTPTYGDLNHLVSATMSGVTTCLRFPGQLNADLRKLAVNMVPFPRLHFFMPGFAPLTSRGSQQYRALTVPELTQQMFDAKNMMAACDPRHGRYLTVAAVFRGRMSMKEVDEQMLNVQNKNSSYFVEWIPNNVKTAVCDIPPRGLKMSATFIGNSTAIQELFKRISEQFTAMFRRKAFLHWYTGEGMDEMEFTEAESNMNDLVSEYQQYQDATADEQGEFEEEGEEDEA

[2] = target: microtubules (paclitaxel-stabilized, polymerized from tubulin); experiment: optical tweezers unbinding-force assay (constant-pulling); as a1 but with 1 mM ATP and TCEP (2 mM by the legend) to cleave the disulfide bonds of the stalk helices
Target sequence in this assay (P02550 whole entry, chain 1 of 2): as the sequence (chain, as listed by the source, chain 1 of 2) above
Target sequence in this assay (P02554 whole entry, chain 2 of 2, further chain): as the sequence (chain, as listed by the source, chain 2 of 2) above

[3] = target: microtubules (paclitaxel-stabilized, polymerized from tubulin); experiment: optical tweezers unbinding-force assay (constant-pulling); motor held by its GFP on anti-GFP Fab-coated ~1-μm beads in an optical trap, MTs immobilized on the coverslip (biotin-streptavidin) and swept past the bead; single-molecule level; no nucleotide (apo, residual ATP 37.5 nM); non-reducing conditions; 30 mM HEPES, 2 mM MgAc2, 1 mM EGTA, 20 μM paclitaxel, pH 7.2; theoretical loading rate 5.6 pN/s; primary unbinding events only
Target sequence in this assay (P02550 whole entry, chain 1 of 2): as the sequence (chain, as listed by the source, chain 1 of 2) above
Target sequence in this assay (P02554 whole entry, chain 2 of 2, further chain): as the sequence (chain, as listed by the source, chain 2 of 2) above

[4] = target: microtubules (paclitaxel-stabilized, polymerized from tubulin); experiment: single-molecule TIRF dwell-time measurement; zero load; labeled single heads binding to and leaving surface-immobilized Cy5-labeled MTs, 100 ms per frame; apo state (2 U/ml apyrase); 30 mM HEPES, 2 mM MgAc2, 1 mM EGTA, pH 7.2; unbinding rate from an exponential fit of the CDF of dwell times
Target sequence in this assay (chain, as listed by the source, chain 1 of 2): as the sequence (chain, as listed by the source, chain 1 of 2) above
Target sequence in this assay (chain, as listed by the source, chain 2 of 2): as the sequence (chain, as listed by the source, chain 2 of 2) above

mean unbinding force (both directions) [1]: < 1 pN
Substance: AAA1 E/Q Dyn1_(331kDa) (E/Q mutation in the AAA1 Walker B motif), P36022 1219-4092

mean unbinding force (both directions) [2]: < 1 pN
Substance: AAA1 E/Q Dyn1_(331kDa)-α CL (AAA1 Walker B E/Q; K3077C, A3250C) (from UniProt P36022 1219-4092) (domain or fragment)

mean unbinding force, forward load [3]: 2.2 pN
Substance: Dyn1_(331kDa)-α CL (K3077C, A3250C; stalk helices disulfide cross-linked in the α-registry) (from UniProt P36022 1219-4092) (domain or fragment)

average MT-bound time [4]: 290 ms
Substance: SNAP-tagged Dyn1_(331kDa)-β CL (β-mutant heads labeled via an inserted N-terminal SNAP-tag), P36022 1219-4092

Substance: GFP-Dyn1_(331kDa), tail-truncated monomeric S. cerevisiae cytoplasmic dynein motor domain (wild type) (from UniProt P36022 1219-4092) (domain or fragment)
mean unbinding force, forward load [3]: 1.6 pN

mean unbinding force, backward load [3]: 0.7 pN | mean unbinding force, forward load [3]: 0.7 pN
Substance: Dyn1_(331kDa)-β CL (I3076C, L3247C; stalk helices disulfide cross-linked in the β-registry) (from UniProt P36022 1219-4092) (domain or fragment)

Reference: PMC6659695
